Laboratory results taken from patent publication US20260242478A1 (published 2026).

Columns and labels:
PSMA Fab (006 PSMA Fab) [1] = molecular target: T1, PSMA Fab (006 PSMA Fab); experiment: clonal phage ELISA on captured PSMA Fab, wells pre-incubated with PSMA antigen as competitor
T1 construct: also called Anti-PSMA Fab; anti-PSMA Fab
Procedure: (§1) Clonal phage were harvested as crude supernatants and screened via standard ELISAs. […] Prior to the addition of clonal phage. wells were incubated with blocking buffer and PSMA antigen or blocking buffer alone. Without washing or aspirating, clonal phage supernatants were then added to the wells and incubated for a short time. Wells were then washed followed by detection of bound phage using a horse radish conjugated anti-M13 antibody.

PSMA Fab (006 PSMA Fab) [2] = molecular target: T1, PSMA Fab (006 PSMA Fab); experiment: clonal phage ELISA on biotinylated PSMA Fab captured on neutravidin, blocking buffer alone, anti-M13 HRP detection;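 note: clonal phage were tested as crude supernatants, and the signal reflects phage still bound to the wells after washing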
Procedure: as §1

PSMA Fab (006 PSMA Fab) [3] = molecular target: T2, PSMA Fab (006 PSMA Fab) (biotinylated (site not stated)); experiment: clonal phage ELISA on captured PSMA Fab, wells pre-incubated with PSMA antigen as competitor
T2 construct: also called Anti-PSMA Fab

PSMA Fab (006 PSMA Fab) [4] = molecular target: T2, PSMA Fab (006 PSMA Fab); experiment: clonal phage ELISA on biotinylated PSMA Fab captured on neutravidin plates, anti-M13 HRP detection;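 note: crude clonal phage supernatants tested, before phage were added, wells were pretreated with PSMA antigen in blocking buffer or with blocking buffer only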
Procedure: as §1

[5] = molecular target: T3, PSMA Fab (SEQ ID NOs: 19, 20) (biotinylated (site not stated)); experiment: clonal phage ELISA on captured biotinylated PSMA Fab, anti-M13-HRP detection, no PSMA antigen
T3 construct: In the phage ELISA the biotinylated PSMA Fab was captured on neutravidin coated plates; also called Anti-PSMA Fab; 006 PSMA Fab

[6] = molecular target: T3, PSMA Fab (SEQ ID NOs: 19, 20); experiment: clonal phage ELISA on captured biotinylated PSMA Fab, anti-M13-HRP detection, competitor: PSMA antigen pre-incubated
Procedure: as §1

[7] = molecular target: T4, PSMA Fab (006 PSMA Fab), biotinylated (biotinylated (site and chain not stated)); experiment: phage ELISA; biotinylated PSMA Fab on neutravidin plate, blocking buffer alone, bound phage detected with HRP anti-M13 antibody
T4 construct: also called Anti-PSMA Fab; anti-PSMA Fab

[8] = molecular target: T4, PSMA Fab (006 PSMA Fab), biotinylated; experiment: phage ELISA; biotinylated PSMA Fab on neutravidin plate, wells first incubated with PSMA antigen as competitor, HRP anti-M13 detection
Procedure: as §1

Row | Binder | phage binding ELISA signal on anti-PSMA Fab in presence of PSMA (PSMA Fab (006 PSMA Fab) [1]) | phage binding ELISA signal on anti-PSMA Fab (PSMA Fab (006 PSMA Fab) [2]) | phage binding ELISA signal [5] | phage binding ELISA signal [6] | other results
1 | VDVRCMPLWMCSGF [Phage-3645 (Peptide-180 library clone)] | 0.0628 | 1.52 | – | – | –
2 | PVPYCRPIWMCQGL [Phage-3664 (peptide-180 library clone)] | – | – | – | – | Phage binding ELISA signal, Anti-PSMA Fab in presence of PSMA (PSMA Fab (006 PSMA Fab) [3]): 0.0736; Phage binding ELISA signal, Anti-PSMA Fab (PSMA Fab (006 PSMA Fab) [4]): 1.49
3 | VEPLCRPTWMCMSL [Phage-3636] | – | – | 1.53 | 0.0766 | –
4 | ESRLCVPMWMCSGF (Tested as crude clonal phage supernatant; not shown: pIII filament protein of the bacteriophage, fused to the peptide) [Phage-3616, clonal phage showing a Peptide-180 library peptide] | – | – | – | – | Phage binding ELISA signal, Anti-PSMA Fab [7]: 1.57; Phage binding ELISA signal, Anti-PSMA Fab with PSMA antigen [8]: 0.0707
5 | VTMKCQPMWMCQGL [Phage-3642] | – | – | 1.52 | 0.0738 | –
6 | LQTLCIPPWMCMGF [Phage-3649 (Peptide-180 library clone)] | 0.0685 | 1.5 | – | – | –
7 | GTTWCVPTWMCEGL [Phage-3634] | – | – | 1.54 | 0.077 | –
8 | YPPLCVPMWMCNGF [Phage-3639] | – | – | 1.53 | 0.107 | –
9 | SMIYCIPSWMCEGM [Phage-3657 (Peptide-180 library clone)] | 0.0844 | 1.5 | – | – | –
10 | ETMRCEPSWMCIGL (Tested as crude clonal phage supernatant; not shown: pIII filament protein of the bacteriophage, fused to the peptide) [Phage-3613, clonal phage showing a Peptide-180 library peptide] | – | – | – | – | Phage binding ELISA signal, Anti-PSMA Fab [7]: 1.57; Phage binding ELISA signal, Anti-PSMA Fab with PSMA antigen [8]: 0.0724
11 | DFIRCSPIWMCDGF (Tested as crude clonal phage supernatant; not shown: pIII filament protein of the bacteriophage, fused to the peptide) [Phage-3617, clonal phage showing a Peptide-180 library peptide] | – | – | – | – | Phage binding ELISA signal, Anti-PSMA Fab [7]: 1.57; Phage binding ELISA signal, Anti-PSMA Fab with PSMA antigen [8]: 0.0807
12 | MVPVCIPLWMCSGF [Phage-3647 (Peptide-180 library clone)] | 0.0744 | 1.51 | – | – | –
13 | ETSWCTPSWMCTGF [Phage-3656 (Peptide-180 library clone)] | 0.0752 | 1.5 | – | – | –
14 | LDRLCLPQWMCVGM (Tested as crude clonal phage supernatant; not shown: pIII filament protein of the bacteriophage, fused to the peptide) [Phage-3615, clonal phage showing a Peptide-180 library peptide] | – | – | – | – | Phage binding ELISA signal, Anti-PSMA Fab [7]: 1.57; Phage binding ELISA signal, Anti-PSMA Fab with PSMA antigen [8]: 0.0704
15 | SVVMCVPEWMCQGF [Phage-3651 (Peptide-180 library clone)] | 0.0734 | 1.5 | – | – | –
16 | ETVRCIPSWMCTGL (Tested as crude clonal phage supernatant; not shown: pIII filament protein of the bacteriophage, fused to the peptide) [Phage-3608, clonal phage showing a Peptide-180 library peptide] | – | – | – | – | Phage binding ELISA signal, Anti-PSMA Fab [7]: 1.58; Phage binding ELISA signal, Anti-PSMA Fab with PSMA antigen [8]: 0.0717
17 | SNMVCIPSWMCNGF [Phage-3641] | – | – | 1.53 | 0.0754 | –
18 | ESRFCVPAWMCAAV [Phage-3665 (peptide-180 library clone)] | – | – | – | – | Phage binding ELISA signal, Anti-PSMA Fab in presence of PSMA (PSMA Fab (006 PSMA Fab) [3]): 0.089; Phage binding ELISA signal, Anti-PSMA Fab (PSMA Fab (006 PSMA Fab) [4]): 1.49
19 | PSAVCVPTWMCSGF [Phage-3652 (Peptide-180 library clone)] | 0.0815 | 1.5 | – | – | –
20 | VERMCEPLWMCAGL [Phage-3655 (Peptide-180 library clone)] | 0.0832 | 1.5 | – | – | –
21 | AEVKCIPTWMCTGF [Phage-3637] | – | – | 1.53 | 0.079 | –
22 | VDRLCMPIWMCEGL (Tested as crude clonal phage supernatant; not shown: pIII filament protein of the bacteriophage, fused to the peptide) [Phage-3611, clonal phage showing a Peptide-180 library peptide] | – | – | – | – | Phage binding ELISA signal, Anti-PSMA Fab [7]: 1.58; Phage binding ELISA signal, Anti-PSMA Fab with PSMA antigen [8]: 0.0788
23 | ELILCRPSWMCTGL [Phage-3632] | – | – | 1.54 | 0.0672 | –

Row | Binder | phage binding ELISA signal on anti-PSMA Fab in presence of PSMA (PSMA Fab (006 PSMA Fab) [1]) | phage binding ELISA signal on anti-PSMA Fab (PSMA Fab (006 PSMA Fab) [2]) | phage binding ELISA signal [5] | phage binding ELISA signal [6] | other results
24 | LALACVPPWMCQGL [Phage-3654 (Peptide-180 library clone)] | 0.0897 | 1.5 | – | – | –
25 | IDRHCTPSWMCYGF [Phage-3658 (Peptide-180 library clone)] | 0.0562 | 1.5 | – | – | –
26 | LDIVCRPSWMCYGF (Tested as crude clonal phage supernatant; not shown: pIII filament protein of the bacteriophage, fused to the peptide) [Phage-3607, clonal phage showing a Peptide-180 library peptide] | – | – | – | – | Phage binding ELISA signal, Anti-PSMA Fab [7]: 1.58; Phage binding ELISA signal, Anti-PSMA Fab with PSMA antigen [8]: 0.0774
27 | MVSHCVPLWMCAGF [Phage-3660 (peptide-180 library clone)] | – | – | – | – | Phage binding ELISA signal, Anti-PSMA Fab in presence of PSMA (PSMA Fab (006 PSMA Fab) [3]): 0.0616; Phage binding ELISA signal, Anti-PSMA Fab (PSMA Fab (006 PSMA Fab) [4]): 1.49
28 | EVAMCKPLWMCSGF [Phage-3635] | – | – | 1.53 | 0.069 | –
29 | VQILCRPQWMCEGL [Phage-3653 (Peptide-180 library clone)] | 0.0669 | 1.5 | – | – | –
30 | DHKLCKPEWMCAGL [Phage-3659 (peptide-180 library clone)] | – | – | – | – | Phage binding ELISA signal, Anti-PSMA Fab in presence of PSMA (PSMA Fab (006 PSMA Fab) [3]): 0.0672; Phage binding ELISA signal, Anti-PSMA Fab (PSMA Fab (006 PSMA Fab) [4]): 1.5
31 | EGPLCKPAWMCRGF [Phage-3663 (peptide-180 library clone)] | – | – | – | – | Phage binding ELISA signal, Anti-PSMA Fab in presence of PSMA (PSMA Fab (006 PSMA Fab) [3]): 0.0963; Phage binding ELISA signal, Anti-PSMA Fab (PSMA Fab (006 PSMA Fab) [4]): 1.49
32 | DPVMCMPRWMCDGF (Tested as crude clonal phage supernatant; not shown: pIII filament protein of the bacteriophage, fused to the peptide) [Phage-3612, clonal phage showing a Peptide-180 library peptide] | – | – | – | – | Phage binding ELISA signal, Anti-PSMA Fab [7]: 1.57; Phage binding ELISA signal, Anti-PSMA Fab with PSMA antigen [8]: 0.0916
33 | TAVMCIPYWMCGGM [Phage-3646 (Peptide-180 library clone)] | 0.104 | 1.52 | – | – | –
34 | ADRVCKPAWMCDLF [Phage-3643] | – | – | 1.52 | 0.0527 | –
35 | EQVLCRPAWMCLGF [Phage-3650 (Peptide-180 library clone)] | 0.0974 | 1.5 | – | – | –
36 | SHMVCKPTWMCQGF (Tested as crude clonal phage supernatant; not shown: pIII filament protein of the bacteriophage, fused to the peptide) [Phage-3609, clonal phage showing a Peptide-180 library peptide] | – | – | – | – | Phage binding ELISA signal, Anti-PSMA Fab [7]: 1.58; Phage binding ELISA signal, Anti-PSMA Fab with PSMA antigen [8]: 0.074
37 | SHALCRPAWMCMGL [Phage-3633] | – | – | 1.54 | 0.0783 | –
38 | FPAMCKPSWMCTGF [Phage-3640] | – | – | 1.53 | 0.082 | –
39 | VHQLCIPVWMCSGF [Phage-3638] | – | – | 1.53 | 0.0996 | –
40 | GWEWCIPEWMCTGL (Tested as crude clonal phage supernatant; not shown: pIII filament protein of the bacteriophage, fused to the peptide) [Phage-3614, clonal phage showing a Peptide-180 library peptide] | – | – | – | – | Phage binding ELISA signal, Anti-PSMA Fab [7]: 1.57; Phage binding ELISA signal, Anti-PSMA Fab with PSMA antigen [8]: 0.0625
41 | PLVLCIPQWMCQAM [Phage-3648 (Peptide-180 library clone)] | 0.0663 | 1.51 | – | – | –
42 | LVNYCIPPWMCAGF [Phage-3631] | – | – | 1.54 | 0.093 | –
43 | PNILCKPQWMCAGF [Phage-3644] | – | – | 1.52 | 0.0825 | –
44 | HVAACVPSWMCTGF [Phage-3662 (peptide-180 library clone)] | – | – | – | – | Phage binding ELISA signal, Anti-PSMA Fab in presence of PSMA (PSMA Fab (006 PSMA Fab) [3]): 0.0842; Phage binding ELISA signal, Anti-PSMA Fab (PSMA Fab (006 PSMA Fab) [4]): 1.49
45 | VAIACTPMWMCTGF [Phage-3661 (peptide-180 library clone)] | – | – | – | – | Phage binding ELISA signal, Anti-PSMA Fab in presence of PSMA (PSMA Fab (006 PSMA Fab) [3]): 0.113; Phage binding ELISA signal, Anti-PSMA Fab (PSMA Fab (006 PSMA Fab) [4]): 1.49
46 | VQPACVPIWMCDGL (Tested as crude clonal phage supernatant; not shown: pIII filament protein of the bacteriophage, fused to the peptide) [Phage-3610, clonal phage showing a Peptide-180 library peptide] | – | – | – | – | Phage binding ELISA signal, Anti-PSMA Fab [7]: 1.58; Phage binding ELISA signal, Anti-PSMA Fab with PSMA antigen [8]: 0.0782
